In the supplement of paper PMC10126150:
± gives the standard deviation of the averaged measurements.

Test system: ATP
Experiment: switch fluorescence ratio, 500 uM ATP over buffer (Cy3 cluster intensity, sum of 5 cycles each) (fold (ratio)); higher = stronger signal-on switching upon ATP binding; sequences stand for … in TCGTCGGCAGCGTCAGATGTGTATAAGAGACAGTTTTTTTTTTTTTTTTTTTTTTTTT…TC
Conditions: aptamer strand: ATP DNA aptamer (quencher-CACCTGGGGGAGTATTGCGGAGGAAGG + anchor), 100 nM annealed; ATP concentration: 500 uM
Method in brief: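 Values give the fluorescence ratio for each switch-domain sequence, averaged from per-cluster ratios of summed target-cycle to summed buffer-cycle Cy3 intensity. The Cy3-labelled switching-strand clusters sat on a modified Illumina MiSeq flow-cell, were annealed to 100 nM quencher-labelled ATP aptamer, and were imaged in selection buffer, then after 15 min with 500 uM ATP at 22 °C. Five cycles ran with NaOH stripping and re-annealing between them, and clusters outside 100-1000 RFU were excluded.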
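Also: ATP exposure 15 min at 22 °C before imaging.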

Sequence	switch fluorescence ratio
AGGGAGATTT	0.99 ± 0.03
AGGGAGCCCG	1.01 ± 0.036
AGGGAGCTCC	1.01 ± 0.025
AGGGAGGAGC	0.923 ± 0.045
AGGGAGGGGT	0.983 ± 0.021
AGGGAGTTAT	1 ± 0.0014
AGGGATACTG	1.072 ± 0.0048
AGGGATCCTT	1.02 ± 0.031
AGGGATTAGC	0.988 ± 0.015
AGGGCAAAAT	1.02 ± 0.035
AGGGCAAGAG	1.38 ± 0.054
AGGGCAAGTG	0.996 ± 0.034
AGGGCAAGTT	1.01 ± 0.064
AGGGCAGAGG	0.98599 ± 0.00021
AGGGCAGCGG	1.03 ± 0.033
AGGGCAGTAT	1.06 ± 0.11
AGGGCCGGCG	1 ± 0.031
AGGGCGCGGA	1.05 ± 0.016
AGGGCGCGTT	0.9645 ± 0.0028
AGGGCGGTCA	0.996 ± 0.025
AGGGCGTATT	0.974 ± 0.026
AGGGCGTCTG	1.01 ± 0.058
AGGGCTAGTA	1 ± 0.034
AGGGGAAGAC	1.29 ± 0.41
AGGGGAAGGG	1.02 ± 0.012

Sequence	switch fluorescence ratio
AGGGGAATGT	0.979 ± 0.026
AGGGGACTTG	1.01 ± 0.06
AGGGGAGACC	0.9775 ± 0.0096
AGGGGAGGAG	0.974 ± 0.017
AGGGGATAGC	1.01 ± 0.017
AGGGGATGGC	0.946 ± 0.017
AGGGGATTAC	1.062 ± 0.0014
AGGGGATTCA	1.02 ± 0.02
AGGGGATTTT	1.04 ± 0.056
AGGGGCAAAT	1.01 ± 0.029
AGGGGCAAGA	1.04 ± 0.032
AGGGGCACGA	1.03 ± 0.024
AGGGGCAGGA	0.941 ± 0.06
AGGGGCATAG	1.007 ± 0.003
AGGGGCCGGT	1.01 ± 0.014
AGGGGCGGGA	0.962 ± 0.041
AGGGGCTAGG	0.983 ± 0.033
AGGGGCTTAT	1.01 ± 0.014
AGGGGCTTGC	0.956 ± 0.036
AGGGGCTTTG	1.03 ± 0.032
AGGGGCTTTT	0.998 ± 0.012
AGGGGGAAGC	1.02 ± 0.027
AGGGGGACAG	0.9761 ± 0.0039
AGGGGGAGGG	1.01 ± 0.03
AGGGGGAGTA	0.993 ± 0.027

Sequence	switch fluorescence ratio
AGGGGGCCGC	0.976 ± 0.087
AGGGGGCCGT	0.982 ± 0.042
AGGGGGCTCT	1.02 ± 0.029
AGGGGGGAGT	1.02 ± 0.031
AGGGGGGATG	0.992 ± 0.022
AGGGGGGCCA	1.02 ± 0.028
AGGGGGGCTC	0.98 ± 0.04
AGGGGGGGA	0.9821 ± 0.0079
AGGGGGGGTA	0.997 ± 0.033
AGGGGGGGTT	0.992 ± 0.033
AGGGGGGTAT	0.993 ± 0.027
AGGGGGTAAT	1.01 ± 0.049
AGGGGGTCTA	1.013 ± 0.0014
AGGGGGTGTC	1.075 ± 0.0097
AGGGGGTTCG	1.02 ± 0.027
AGGGGTAAAG	0.955 ± 0.021
AGGGGTAAGG	1.03 ± 0.033
AGGGGTAAGT	0.981 ± 0.011
AGGGGTATGG	0.998 ± 0.017
AGGGGTCAGG	1.022 ± 0.0055
AGGGGTGAAA	0.987 ± 0.021
AGGGGTGATG	0.9827 ± 0.001
AGGGGTGGTC	1.04 ± 0.017
AGGGGTGTG	1 ± 0.046
AGGGGTTAAG	0.954 ± 0.024

Sequence	switch fluorescence ratio
AGGGGTTAAT	0.985 ± 0.035
AGGGGTTGTG	1 ± 0.024
AGGGGTTGTT	1.07 ± 0.091
AGGGGTTTGA	1.01 ± 0.047
AGGGTAAAGG	0.989 ± 0.019
AGGGTAATGG	1.03 ± 0.021
AGGGTATCTC	1.08 ± 0.1
AGGGTATGAT	0.99 ± 0.025
AGGGTATTTC	1.02 ± 0.012
AGGGTCCACG	0.947 ± 0.015
AGGGTCTGCG	0.981 ± 0.025
AGGGTCTGGG	0.993 ± 0.034
AGGGTGAATA	1.005 ± 0.0027
AGGGTGACAT	0.999 ± 0.013
AGGGTGACGG	1.02 ± 0.031
AGGGTGATTG	1.009 ± 0.0077
AGGGTGGAGC	1.07 ± 0.092
AGGGTGGCGC	1.02 ± 0.021
AGGGTGGCGT	0.9459 ± 0.0075
AGGGTGGCTA	1.011 ± 0.0015
AGGGTGTGGT	0.9841 ± 0.0039
AGGGTGTTTT	1.01 ± 0.028
AGGGTTAATG	1.05 ± 0.017
AGGGTTACTG	1.04 ± 0.068
AGGGTTAGTG	0.979 ± 0.012

Sequence	switch fluorescence ratio
AGGGTTATTG	1.01 ± 0.047
AGGGTTGAAG	0.989 ± 0.035
AGGGTTGGAG	1.003 ± 0.0042
AGGGTTGTTA	0.982 ± 0.027
AGGGTTTGTG	1.11 ± 0.037
AGGGTTTGTT	1.02 ± 0.04
AGGGTTTTGG	0.999 ± 0.03
AGGTAATACG	1.098 ± 0.0067
AGGTAATGAA	0.967 ± 0.023
AGGTACAGTA	1.017 ± 0.0017
AGGTAGAAGA	0.97 ± 0.013
AGGTAGCATA	1.05 ± 0.03
AGGTAGCATG	1.01 ± 0.066
AGGTAGGACT	1 ± 0.014
AGGTAGGGCA	0.9762 ± 0.0049
AGGTAGGTGG	1.01 ± 0.019
AGGTAGGTTT	0.99 ± 0.017
AGGTAGTAAG	0.995 ± 0.031
AGGTAGTCTG	0.9756 ± 0.003
AGGTATCAGA	0.972 ± 0.021
AGGTCCTCTA	0.974 ± 0.059
AGGTCCTGTG	0.998 ± 0.016
AGGTCCTTCA	1.29 ± 0.046
AGGTCGGAAT	1.04 ± 0.028
AGGTCGGCAT	0.997 ± 0.02

Sequence	switch fluorescence ratio
AGGTCTAGTT	0.9995 ± 0.0089
AGGTGAATGG	1.02 ± 0.03
AGGTGATATG	1.0171 ± 0.00075
AGGTGCCTG	0.971 ± 0.035
AGGTGCTCTT	1 ± 0.053
AGGTGCTGGT	0.997 ± 0.033
AGGTGCTGTG	1.01 ± 0.051
AGGTGCTTGG	0.997 ± 0.026
AGGTGGAAGG	0.984 ± 0.021
AGGTGGAGGG	1 ± 0.032
AGGTGGCATT	1.04 ± 0.015
AGGTGGCCGT	0.963 ± 0.02
AGGTGGTGGG	1.01 ± 0.014
AGGTGTAGGC	0.979 ± 0.038
AGGTGTAGGG	1.01 ± 0.025
AGGTGTATTC	0.9962 ± 0.0058
AGGTGTCTTG	1.14 ± 0.074
AGGTGTGTGC	0.97 ± 0.014
AGGTGTTGGA	0.985 ± 0.032
AGGTGTTGGG	1.01 ± 0.035
AGGTGTTGGT	1.03 ± 0.025
AGGTGTTTGT	1.01 ± 0.028
AGGTTAACAG	0.9909 ± 0.0073
AGGTTAATGT	0.996 ± 0.032
AGGTTAATTG	0.9909 ± 0.0072

Sequence	switch fluorescence ratio
AGGTTACGAG	1 ± 0.02
AGGTTAGGGC	0.984 ± 0.018
AGGTTAGTGG	1.015 ± 0.01
AGGTTATGTG	0.999 ± 0.037
AGGTTCCTCT	1.04 ± 0.019
AGGTTCGGAG	1.04 ± 0.06
AGGTTGACTG	0.988 ± 0.1
AGGTTGAGAG	0.9515 ± 0.0075
AGGTTGAGGT	1.08 ± 0.12
AGGTTGGAGC	1 ± 0.021
AGGTTGGGCA	0.984 ± 0.0096
AGGTTGGGT	0.973 ± 0.025
AGGTTGTGCG	1 ± 0.042
AGGTTGTGCT	0.9644 ± 0.009
AGGTTGTGTG	0.959 ± 0.044
AGGTTGTTAG	1.01 ± 0.019
AGGTTTAAGG	0.9726 ± 0.0058
AGGTTTGCAA	1.04 ± 0.028
AGGTTTGCGA	1.02 ± 0.018
AGGTTTGCTA	0.959 ± 0.017
AGGTTTGTGT	1.01 ± 0.024
AGGTTTGTTG	0.998 ± 0.016
AGGTTTGTTT	0.976 ± 0.0092
AGGTTTTCTA	1.012 ± 0.0036
AGGTTTTGGA	0.98 ± 0.021

Sequence	switch fluorescence ratio
AGTAAAGCGG	1 ± 0.027
AGTAAAGGGA	1.02 ± 0.029
AGTAAATAGT	1.0008 ± 3.6e-05
AGTAAATGGA	0.9854 ± 0.0055
AGTAAGGGAG	1.01 ± 0.082
AGTAAGGGGG	0.998 ± 0.035
AGTAAGGTTA	1 ± 0.024
AGTAATGAAA	0.975 ± 0.035
AGTACAGGGT	0.99 ± 0.032
AGTACCGTTT	0.968 ± 0.027
AGTACTAGGA	0.993 ± 0.011
AGTACTGGCA	1.04 ± 0.061
AGTAGATGGC	1.02 ± 0.053
AGTAGCAAG	1.08 ± 0.036
AGTAGCCTGA	1.01 ± 0.013
AGTAGCTCGG	1.009 ± 0.0092
AGTAGGGCGG	1 ± 0.033
AGTAGGGGAC	0.994 ± 0.022
AGTAGGGTGG	0.991 ± 0.032
AGTAGTAGGA	1.01 ± 0.017
AGTAGTTATT	0.965 ± 0.011
AGTATAGAAA	0.978 ± 0.0065
AGTATATAGT	1.004 ± 0.0073
AGTATATCTT	0.98 ± 0.012
AGTATATGGA	1.01 ± 0.013
